Consider 2 molecules from US20160194380A1 (Merck KGaA, published 2016).

Where no end group is shown, it is not given here.

A word on the Ki: it is the dissociation constant of the complex between target and ligand, obtained from inhibition or displacement. Read a high Ki as a looser hold on the target.

One assay concerns the target T1, Human matriptase-1 (human, UniProt Q9Y5Y6 596-855, limits assumed).
T1 construct: also called MTSP1
T1 sequence (looked up): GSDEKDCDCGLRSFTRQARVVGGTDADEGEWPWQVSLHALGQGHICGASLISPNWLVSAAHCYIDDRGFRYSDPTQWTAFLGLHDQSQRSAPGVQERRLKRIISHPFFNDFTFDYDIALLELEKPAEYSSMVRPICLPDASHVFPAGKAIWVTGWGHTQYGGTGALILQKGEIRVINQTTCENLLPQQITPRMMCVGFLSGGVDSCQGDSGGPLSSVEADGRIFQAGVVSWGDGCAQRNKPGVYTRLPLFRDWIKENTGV
Put plainly: protease inhibition assay, substrate-independent Ki from Morrison fit. How it is done: (§1) D: Biol. Crystallogr., 69(2013), 114-120; Reinwarth, ChemBioChem, 14(2013), 137-146; Boy, Mol. Imaging Biol. 12(2010), 377-385] Measurements were carried out in triplicates using a Tecan Genios ELISA reader. The normalized residual proteolytic activity (v/v0) of proteases was determined using substrates Boc-QAR-pNA (250 μM), Boc-QAR-AMC (250 μM) or Spectrozym tPA (250 μM). Product formation was monitored after preincubation (30 min, RT) with inhibitor at different concentrations over 30 min by measuring the absorbance at 405 nm or the fluorescence emission (ex. 360 nm, em. 465 nm), respectively. Selectivity data were carried out in duplicates with final protease concentrations of uPA and thrombin of 5 nM. In case of hepsin 50 mM Tris/HCl pH 9.0 was used as assay buffer. Apparent inhibition constants (Kᵢ^app) were calculated by fitting the Morrison equation (1) for tight-binding inhibitors to the relative reaction velocity using non-linear regression (Marquardt-Levenberg algorithm, SigmaPlot 11).
(§2) Substrate-independent inhibition constants Ki were calculated from Ki^app and Km of the enzyme according to (2). The Michaelis-Menten constant Km for the substrates and proteases were determined previously.

In assay [1] the target is T2, Bovine pancreatic trypsin (bovine, UniProt P00760 24-246).
T2 construct: Bought
T2 sequence (P00760 24-246): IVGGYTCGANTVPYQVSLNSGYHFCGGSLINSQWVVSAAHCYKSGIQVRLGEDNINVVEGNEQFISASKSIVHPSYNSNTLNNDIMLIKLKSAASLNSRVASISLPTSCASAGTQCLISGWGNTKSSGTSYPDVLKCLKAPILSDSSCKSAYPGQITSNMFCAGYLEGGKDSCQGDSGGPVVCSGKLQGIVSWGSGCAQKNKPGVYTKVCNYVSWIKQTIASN
Described as above. How it is done: as §1, §2

B1: MCoTI-II wt (inhibitor 3) (peptide, UniProt P82409 5-34, looked up)
peptide: GGVCPKILKKCRRDSDCPGACICRGNGYCG
modifications: disulfide (positions not given here); also: oxidatively folded, disulfide places not given here
notes: Open-chain (acyclic) form, chemically synthesised and oxidatively folded; also called 3 (MCoTI-II wt); MCoTI-wt 3
For B1, the results for the inhibition constant Ki (with Human matriptase-1; in assay [1]) were 80.7 nM and 2.37 nM, respectively.

B2: SOTI-III wt (inhibitor 1) (peptide, UniProt P84781 1-37, looked up)
peptide: EDKCSPSGAICSGFGPPEQCCSGACVPHPILRIFVCQ
modifications: disulfide (positions not given here); also: oxidatively folded, disulfide places not given here
notes: Made by Fmoc-SPPS and oxidative folding; also called 1 (SOTI-III wt); SOTI-III wild type 1
For B2, the Ki in assay [1] was found to be 60.6 nM.
